{"source": "paper PMC9149119", "binders": {"B1": {"name": "dsDNA 6-mer (dsDNA)", "DNA 1": "CGTGCG", "DNA 2": "CGTGCG"}}, "key": {"[1]": {"target": "T1, MsCAPP PP domain (MsPP111-328) (Marinitoga sp. 1137, UniProt PDB:7QAZ_1 1-219)", "T1 sequence": "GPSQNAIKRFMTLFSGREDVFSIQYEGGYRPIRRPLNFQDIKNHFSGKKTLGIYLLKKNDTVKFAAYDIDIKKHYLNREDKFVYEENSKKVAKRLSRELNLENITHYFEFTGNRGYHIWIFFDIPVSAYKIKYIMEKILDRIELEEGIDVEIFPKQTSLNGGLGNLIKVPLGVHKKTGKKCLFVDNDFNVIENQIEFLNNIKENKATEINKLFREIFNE", "assay": "X-ray crystallography"}, "[2]": {"target": "T1, MsCAPP PP domain (MsPP111-328)", "assay": "X-ray crystallography", "remark": "listed apart in the source"}}, "note": "Like-named read-outs stand apart in the source and are kept apart here.", "data": [{"binder": "AAAAATCAA (ssDNA)", "note": "[primer initiation template 9-mer]", "values": [{"measurement": "binding result", "setting": "[1]", "result": "binds"}]}, {"binder": "B1", "values": [{"measurement": "binding result", "setting": "[2]", "result": "binds"}]}]}
